Test: soluble on expression in E. coli; label from the status in PepcDB or PDB records

Sequence | soluble on expression in E. coli
MRVYVFTPDGDVLDLPHGVTPLDFAYHVHSNLGHRCRGAKVNGHIVPLTYQLKTGDRVEVLTGKEIKPSRLEHHHHHH | not soluble
MGSDKIHHHHHHMPENYTPAAAATGTWTEEEIRHQPRAWIRSLTNIDALRSALNNFLEPLLRKENLRIILTGAGTSAFIGDIIAPWLASHTGKNFSAVPTTDLVTNPMDYLNPAHPLLLISFGRSGNSPESVAAVELANQFVPECYHLPITCNEAGALYQNAINSDNAFALLMPAETHDRGFAMTSSITTMMASCLAVFAPETINSQTFRDVADRCQAILTSLGDFSEGVFGYAPWKRIVYLGSGGLQGAARESALKVLELTAGKLAAFYDSPTGFRHGPKSLVDDETLVVVFVSSHPYTRQYDLDLLAELRRDNQAMRVIAIAAESSDIVAAGPHIILPPSRHFIDVEQAFCFLMYAQTFALMQSLHMGNTPDTPSASGTVNRVVQGVIIHPWQA | not soluble
MSYQNLVSEAGLTQKLLIHGDKELFQHELKTIFARNWLFLTHDSLIPSPGDYVKAKMGVDEVIVSRQNDGSVRAFLNVCRHRGKTLVHAEAGNAKGFVCGYHGWGYGSNGELQSVPFEKELYGDAIKKKCLGLKEVPRIESFHGFIYGCFDAEAPPLIDYLGDAAWYLEPTFKYSGGLELVGPPGKVVVKANWKSFAENFVGDGYHVGWTHAAALRAGQSVFSSIAGNAKLPPEGAGLQMTSKYGSGMGVFWGYYSGNFSADMIPDLMAFGAAKQEKLAKEIGDVRARIYRSFLNGTIFPNNSFLTGSAAFRVWNPIDENTTEVWTYAFVEKDMPEDLKRRVADAVQRSIGPAGFWESDDNENMETMSQNGKKYQSSNIDQIASLGFGKDVYGDECYPGVVGKSAIGETSYRGFYRAYQAHISSSNWAEFENASRNWHIEHTKTTDR | soluble
RELIRHGAEVHAVMSEAATKIIHPYAMEFATGNPVITEITGFIEHVELAGEHENKADLILVCPATANTISKIACGIDDTPVTTVVTTAFPHIPIMIAPAMHETMYRHPIVRENIERLKKLGVEFIGPRIEEGKAKVASIDEIVYRVIKKLHKKTLEGKRVL | not soluble
MAIYADNSYSIGNTPLVRLKHFGHNGNVVVKIEGRNPSYSVKCRIGANMVWQAEKDGTLTKGKEIVDATSGNTGIALAYVAAARGYKITLTMPETMSLERKRLLCGLGVNLVLTEGAKGMKGAIAKAEEIVASDPSRYVMLKQFENPANPQIHRETTGPEIWKDTDGKVDVVVAGVGTGGSITGISRAIKLDFGKQITSVAVEPVESPVISQTLAGEEVKPGPHKIQGIGAGFIPKNLDLSIIDRVETVDSDTALATARRLMAEEGILAGISSGAAVAAADRLAKLPEFADKLIVVILPSASERYLSTALFEGIEG | soluble
MDEVNVIARITGVSRVRTFERDGREGRFISLDIMDATGSTTYTLWNNDVNLVEELGLKEGDAVKILWAQPRRRDDKVTLTHTSLTRVVPGLEHHHHHH | not soluble
MDPFKKPVRMLPIKGAPISRPISVFTFDVFNPPDDSDGSSTPDSVFEAETSPARTPPTPALILPYDYVSSEDSDDEAQEHADNRDTNDQVSESSTSEDSDSESESSCDDTQQTFVDDESTSSSGEEDRDDPFESNDQGAQGGSTSESEDDLPAILRAARETQSDSSSDSSGNSHKKRRVQEEESSRILKTPAPISGNGKYNWPWLD | soluble
MAYVTWLLAILHVHKDSFEIAAPSDSYLSAEPGQDVTLTCQLPRTWPVQQVIWEKVQPHQVDILASCNLSQETRYTSKYLRQTRSNCSQGSMKSILIIPNAMAADSGLYRCRSEAITGKNKSFVIRLIITDGE | not soluble
MSRKNISLTESLEEYIFRNSVREPDSFLKLRKETGTLAQANMQISPEEGQFLNILTKISGAKRIIEIGTFTGYSSLCFASALPEDGKILCCDVSEEWTNVARKYWKENGLENKIFLKLGSALETLQVLIDSKSAPSWASDFAFGPSSIDLFFLDADKENYPNYYPLILKLLKPGGLLIADNVLWDGSVADLSHQEPSTVGIRKFNELVYNDSLVDVSLVPIADGVSLVRKRLEHHHHHH | soluble
MYDCAAPSLSTGRNTMNHTAELEKALTDLRHITGISMEIHAETEEEVTKALEQLKLLSSAYKEKYNKIHFLQSLMTDSIPTYNVYDRAARLHIAPEEPRILYLLETSHSLDEDISEILKNLFPSQSGAFRIPLTEASCAILCPVRSLADSSQETVHLTARMIVDTVNAEALARVRVSYSKTLHNLLDLSTAFRETSLALKVGKLFYSEQTVFPYNRLGIGRLIYRLPTSLCENFLHEIFGEEIPQALDEETTATVNKFLQNNLNIAETSRQLHMHRNTLIYRLEQIEKRTGLDLRQFEDAMTFKIASMVMNYLYTERNIPHE | not soluble
MIILQGNKLERSFSGDVLFQNISLQVDERDRIALVGPNGAGKSTLLKLLVGEETPTSGEVNTKKDLTLSYLAQNSRFESDQTIYEEMLKVFEALRQDEKRLRQMEMDMATVSGQVLTRLMTDYDLLTEHFRQQGGFTYESDIKAILNGFKFDESMWQMTIAELSGGQNTRLALAKMLLEKPELLVLDEPTNHLDIETIAWLENYLANYQGALIIVSHDRYFLDKVATVTLDLTPNGLDRYSGNYSRFMALKAEKLVAEEKQFDKQQKEIAKLEDFVQKNIVRASTTKRAQARRKQLEKIERLDKPTGGRKSAHMTFHAEKPSGNVVLRVEEAAIGYGDQVLSEPINVDINKLDAIAVVGPNGIGKSTLIKSIIGQLPLLKGQLKYGANVETGYYDQTQSHLTSSNTVLEELWQDFSTTPEVDIRNRLGAFLFSGDDVKKSVAMLSGGEKARLLLAKLSMENNNFLVLDEPTNHLDIDSKEVLENALIDFDGTLLFVSHDRYFINRLATKVLEITENGSTLYLGDYDYYLEKKAELEELARLAAGETVEETKEASATDYQLQKANQKERRRLTRRYEEIEARLETIEERIGAIQEDMHASNDTAQLIAWQKEWDQLDQEQEALMEEWETIAEQIES | not soluble
GSHMEQDLKTLPTTKITCPKCGNDTAYWWEMQTRAGDEPSTIFYKCTKCGHTWRSYE | soluble
MTLNPRQSALVELVRTQGSATIEALARHFDVTLQTVRRDVNLLSEAGMLSRFHGGVRIESSTIENIAYRKRQGLHAEGKRRIAEAVARAVPDGCSLLINIGTTTEAIARALLRHRGLRVITNNLHVADILSDNPDCEVIVAGGVVRSRDRGIVGEATLDFIRQFKVDIGLIGISGIEADGTLRDYDFREVRVARAIIEQSREVWLAADSSKFQRQAMVELVHVSRIHRFFTDTQPQEPLAQVLQDAGVRCDVAAQSAGAAAALEHHHHHH | not soluble
GSLRVKFSRSADAPAYQQGQNQLYNELNLGRREEYDVLDKRRGRD | soluble
MGSSHHHHHHSSGLVPRGSNLKIKLQKRRDEVNTCLCIGLDPDEADIKSFMQSEKQNGYQSVKKNLSNSGSSSSSSNSSSGKGELFAPQMGGQMLLAETPPKEAQEKDEFFYFFNHFCFYIINETKEYALAYKMNFAFYLPYGSLGVDVLKNVFDYLHHLNVPTILDIKMNDIGNTVKHYRKFIFDYLRSDSCTANIYMGTQMLRDICLDEECKRYYSTFVLVKTTNADSHIFQNRLSLDGKEAYVVIAEEVQKMAKQLHLEENGEFVGFVVGANCYDEIKKIRELFPDCYILAPGVGAQKGDLRKMLCNGYSKNYEKVLINVGRAITKSGSPQQAAREYHQQIKEVLAELQE | soluble
AERLPDFLAKIQPSEIFPGADRYGKPEGKPMVARVYKGDEQLGLVYITTDAVNTRGYSSKPIDTLMVLANDGTIAGAKLVDHHEPIMLIGIPHLPAPGRAIRSNWLPAYIKPNFTLTNRLRLKGLPTVPQPSKATGAGVP | not soluble
MGSDKIHHHHHHMSKTLKEITDQKNELKKFFENFVLNLEKTEIFSEIQKNLTDEVLFVGCGSSYNLALTISYYFERVLKIRTKAIPAGEVAFQKIPDLEERGLAFLFSRTGNTTEVLLANDVLKKRNHRTIGITIEEESRLAKESDLPLVFPVREEAIVMTKSFSMILLSLMFLADKIAGNSTERFSELVGYSPEFFDISWKVIEKIDLKEHDHFVFLGMSEFFGVSLESALKCIEMSLTFSEAYSTLEYRHGPKALVKKGTLVFMQKVSGMDEQEKRLRKELESLGATVLEVGEGGDIPVSNDWKSAFLRTVPAQILGYQKAISRGISPDKPPHLEKTVVL | soluble
MGSSHHHHHHSSGLVPRGSHMYLGRILAVGRNSNGSFVAYRVSSRSFPNRTTSIQEERVAVVPVEGHERDVFRNPYIAYNCIRIVGDTAVVSNGSHTDTIADKVALGMNLRDAIGLSLLAMDYEKDELNTPRIAAAINGSEAFIGIVTADGLMVSRVPEETPVYISTYEQTEPAATEFKAGSPEEAAEFILKGGEFAAFTHPVTAAAAFNDGEGWNLATREM | soluble
MGSDKIHHHHHHMEEIKEQNNRLFLLLSIMIMEFSNAKTESDILQGLLNLVRKVVDIKEVVLVDENKRKIWGRDIDIKRFEEFIDWSIRQSNPVFVEDELGYVGIVPVVKQDRMFGSLIVLLNHQPSMEETEIFKVLSFLSAVVLENIKLYRELEETYNYVNVILNGLPEGIFVYSNGEIKFQNEKFKEENFPDEVLRKAISLSEEAISLRTQRVGEVISGEEFFSITSIPLILGSEVQALTIVENVTESKELERLKRIDRMKTEFIANISHELRTPLTAIKAYAETIYNSLGELDLSTLKEFLEVIIDQSNHLENLLNELLDFSRLERKSLQINREKVDLCDLVESAVNAIKEFASSHNVNVLFESNVPCPVEAYIDPTRIRQVLLNLLNNGVKYSKKDAPDKYVKVILDEKDGGVLIIVEDNGIGIPDHAKDRIFEQFYRVDSSLTYEVPGTGLGLAITKEIVELHGGRIWVESEVGKGSRFFVWIPKDRAGEDNRQDN | not soluble
MLEKVYVALIHYPIKGKDGSIISTAVTNLDVHDIARTARTYNLKGYYIVTNLRAQQDMVSKMLKFWREGFGSRYNPSRAESLKLVKLKSYLEDVLEDIESVEGERPLIFFTSAKKRENDISFEEGRRIIIETEKPVLILLGTGWGLPDEILEISDYVLEPIRAQSDFNHLSVRAAAAIIIDRLIGENYARRD | soluble
MIEPIWIDEQVALAIHERLISLHSGASGVRDKELLKSALARPLNLLAYDQQADVIHLAAAYTAGILQNHPFVDRNKRTGFVVGVLFLELNGYRFTAAEEDSAQAVIALAAGSLDEARFKLFLADNSIPV | not soluble
MGSDKIHHHHHHMRTNVRLLAYRLLRKYEKEKFISREDVDSVLSFLDDRDRRFFKELVWGVVRKEELLDWYINQLLKKKDIPPAVRVALRMGAYQLLFMNSVPDYAAVSETVKLVKNENFKKLVNAVLRRLRTVPEPKELHLVYSHPEWIVNYWRSFLPEEAVLRIMKWNQEPLPVMLRVNSLAATKEEVIKILAEEGTEAVPGKHAPFSLIVRKLGVPMNDSRVINDGLASVQGESSQLVPFFMELRPGLRVLDTCAAPGGKTTAIAELMKDQGKILAVDISREKIQLVEKHAKRLKLSSIETKIADAERLTEYVQDTFDRVLVDAPCTSLGTARNHPEVLRRVNKEDFEKFSEIQLRMVQQAWQLLEKGGILLYSTCTVTKEENTEVVKRFVYEQKDVEVIDIRDKMKEFEVEGIWDGYGFLMLPDETITPFYISVLRKMG | not soluble
MDGIAEPVIIKDDASRFVFINDAACDLLGKDRNQLIGRTDHDILPGEQADRIVSLDRIVLSTSEGHELEEQITTPDGTQRTLLTKKRCVSIPAGSTQEKFVVVTIVDIT | not soluble
MLIRVEIPIDAPGIDALLRRSFESDAEAKLVHDLREDGFLTLGLVATDDEGQVVGYVAFSPVDVQGEDLQWVGMAPLAVDEKYRGQGLARQLVYEGLDSLNEFGYAAVVTLGDPALYSRFGFELAAHYDLHCRWPGTESAFQVHRLAEDALEGVTGLVEYHDHFNRF | not soluble
MAQWSTMSTADRDFVVRFPTGTSDPLSDAEIQQYREEIDRLDKEILAAVKRRTEISRAIGKTRMGSGGTRLVHTREVAIINQFREEIGEEGPALAGILLRMGRGRLGEAR | not soluble
